US20220211857A1, “POLYPEPTIDE DERIVATIVE AND PREPARATION METHOD THEREOF” (NINGBO KUNPENG BIOTECH CO., LTD., priority 2019, published 2022)
Where a SMILES comes first, the peptide text is derived from it. The star is where a group is joined. X1 = O=C(O)CCCCCCCCCCCCCCC(=O)NC(CCC(=O)NCCOCCOCC(=O)NCCOCCOCC(=O)NCCn1cc(CCOC(=O)*)nn1)C(=O)O; X6 = O=C(O)CCCCCCCCCCCCCCC(=O)NC(CCC(=O)NCCOCCOCC(=O)NCCOCCOCCn1cc(CCOC(=O)*)nn1)C(=O)O; X3 = O=C(O)CCCCCCCCCCCCCCC(=O)NC(CCC(=O)NCCOCCOCCOCCOCCn1cc(CCOC(=O)*)nn1)C(=O)O; X5 = O=C(O)CCCCCCCCCCCCCCC(=O)NC(CCC(=O)NCCOCCOCCOCCn1cc(CCOC(=O)*)nn1)C(=O)O; X4 = O=C(O)CCCCCCCCCCCCCCC(=O)NC(CCC(=O)NCCOCCOCCn1cc(CCOC(=O)*)nn1)C(=O)O

How the values were obtained:
[1] = Pharmacokinetics studies of PTH-1 derivatives in rats (single subcutaneous injection, LC-MS/MS, NCA); format: in vivo; details: rat; for half-lives (in words): experiment of Example 10 repeated in the same way
Description: PTH-1 and L6-GFA16-PTH-1 were injected subcutaneously with a single administration of 8.6 μg/kg, respectively. Animals in each group were collected blood at 0 min, 5 min, 15 min, 30 min, 1 h, 2 h, and 4 h after administration. […] Exposure time of drugs in vivo was prolonged and exposure doses were increased.

[2] = general background statement; cited from earlier work
[3] = subcutaneous administration or intramuscular injection, background statement; cited from earlier work

Molecule | half-lives (in words) [1] | also measured
CC[C@H](C)[C@H](NC(=O)[C@H](CCC(=O)O)NC(=O)[C@H](CO)NC(=O)[C@@H](NC(=O)[C@@H](N)CO)C(C)C)C(=O)N[C@@H](CCC(N)=O)C(=O)N[C@@H](CC(C)C)C(=O)N[C@@H](CCSC)C(=O)N[C@@H](Cc1c[nH]cn1)C(=O)N[C@@H](CC(N)=O)C(=O)N[C@@H](CC(C)C)C(=O)NCC(=O)N[C@@H](CCCNC(=N)N)C(=O)N[C@@H](Cc1c[nH]cn1)C(=O)N[C@@H](CC(C)C)C(=O)N[C@@H](CC(N)=O)C(=O)N[C@@H](CO)C(=O)N[C@@H](CCSC)C(=O)N[C@@H](CCC(=O)O)C(=O)N[C@@H](CCCNC(=N)N)C(=O)N[C@H](C(=O)N[C@@H](CCC(=O)O)C(=O)N[C@@H](Cc1c[nH]c2ccccc12)C(=O)N[C@@H](CC(C)C)C(=O)N[C@@H](CCCNC(=N)N)C(=O)N[C@@H](CCCCNC(=O)OCCc1cn(CCOCCOCCNC(=O)CCC(NC(=O)CCCCCCCCCCCCCCC(=O)O)C(=O)O)nn1)C(=O)N[C@@H](CCCNC(=N)N)C(=O)N[C@@H](CC(C)C)C(=O)N[C@@H](CCC(N)=O)C(=O)N[C@@H](CC(=O)O)C(=O)N[C@H](C(=O)N[C@@H](Cc1c[nH]cn1)C(=O)N[C@@H](CC(N)=O)C(=O)N[C@@H](Cc1ccccc1)C(=O)O)C(C)C)C(C)C (stereo partly shown) [L2-GFA16-PTH] (H-SVSEIQLMHNLGRHLNSMERVEWLRK(X4)RLQDVHNF-OH) | significantly prolonged | 
CC[C@H](C)[C@H](NC(=O)[C@H](CCC(=O)O)NC(=O)[C@H](CO)NC(=O)[C@@H](NC(=O)[C@@H](N)CO)C(C)C)C(=O)N[C@@H](CCC(N)=O)C(=O)N[C@@H](CC(C)C)C(=O)N[C@@H](CCSC)C(=O)N[C@@H](Cc1c[nH]cn1)C(=O)N[C@@H](CC(N)=O)C(=O)N[C@@H](CC(C)C)C(=O)NCC(=O)N[C@@H](CCCNC(=N)N)C(=O)N[C@@H](Cc1c[nH]cn1)C(=O)N[C@@H](CC(C)C)C(=O)N[C@@H](CC(N)=O)C(=O)N[C@@H](CO)C(=O)N[C@@H](CCSC)C(=O)N[C@@H](CCC(=O)O)C(=O)N[C@@H](CCCNC(=N)N)C(=O)N[C@H](C(=O)N[C@@H](CCC(=O)O)C(=O)N[C@@H](Cc1c[nH]c2ccccc12)C(=O)N[C@@H](CC(C)C)C(=O)N[C@@H](CCCNC(=N)N)C(=O)N[C@@H](CCCCNC(=O)OCCc1cn(CCOCCOCCOCCNC(=O)CCC(NC(=O)CCCCCCCCCCCCCCC(=O)O)C(=O)O)nn1)C(=O)N[C@@H](CCCNC(=N)N)C(=O)N[C@@H](CC(C)C)C(=O)N[C@@H](CCC(N)=O)C(=O)N[C@@H](CC(=O)O)C(=O)N[C@H](C(=O)N[C@@H](Cc1c[nH]cn1)C(=O)N[C@@H](CC(N)=O)C(=O)N[C@@H](Cc1ccccc1)C(=O)O)C(C)C)C(C)C (stereo partly shown) [L3-GFA16-PTH] (H-SVSEIQLMHNLGRHLNSMERVEWLRK(X5)RLQDVHNF-OH) | significantly prolonged | 
CC[C@H](C)[C@H](NC(=O)[C@H](CCC(=O)O)NC(=O)[C@H](CO)NC(=O)[C@@H](NC(=O)[C@@H](N)CO)C(C)C)C(=O)N[C@@H](CCC(N)=O)C(=O)N[C@@H](CC(C)C)C(=O)N[C@@H](CCSC)C(=O)N[C@@H](Cc1c[nH]cn1)C(=O)N[C@@H](CC(N)=O)C(=O)N[C@@H](CC(C)C)C(=O)NCC(=O)N[C@@H](CCCNC(=N)N)C(=O)N[C@@H](Cc1c[nH]cn1)C(=O)N[C@@H](CC(C)C)C(=O)N[C@@H](CC(N)=O)C(=O)N[C@@H](CO)C(=O)N[C@@H](CCSC)C(=O)N[C@@H](CCC(=O)O)C(=O)N[C@@H](CCCNC(=N)N)C(=O)N[C@H](C(=O)N[C@@H](CCC(=O)O)C(=O)N[C@@H](Cc1c[nH]c2ccccc12)C(=O)N[C@@H](CC(C)C)C(=O)N[C@@H](CCCNC(=N)N)C(=O)N[C@@H](CCCCNC(=O)OCCc1cn(CCOCCOCCOCCOCCNC(=O)CCC(NC(=O)CCCCCCCCCCCCCCC(=O)O)C(=O)O)nn1)C(=O)N[C@@H](CCCNC(=N)N)C(=O)N[C@@H](CC(C)C)C(=O)N[C@@H](CCC(N)=O)C(=O)N[C@@H](CC(=O)O)C(=O)N[C@H](C(=O)N[C@@H](Cc1c[nH]cn1)C(=O)N[C@@H](CC(N)=O)C(=O)N[C@@H](Cc1ccccc1)C(=O)O)C(C)C)C(C)C (stereo partly shown) [L4-GFA16-PTH] (H-SVSEIQLMHNLGRHLNSMERVEWLRK(X3)RLQDVHNF-OH) | significantly prolonged | 
CC[C@H](C)[C@H](NC(=O)[C@H](CCC(=O)O)NC(=O)[C@H](CO)NC(=O)[C@@H](NC(=O)[C@@H](N)CO)C(C)C)C(=O)N[C@@H](CCC(N)=O)C(=O)N[C@@H](CC(C)C)C(=O)N[C@@H](CCSC)C(=O)N[C@@H](Cc1c[nH]cn1)C(=O)N[C@@H](CC(N)=O)C(=O)N[C@@H](CC(C)C)C(=O)NCC(=O)N[C@@H](CCCNC(=N)N)C(=O)N[C@@H](Cc1c[nH]cn1)C(=O)N[C@@H](CC(C)C)C(=O)N[C@@H](CC(N)=O)C(=O)N[C@@H](CO)C(=O)N[C@@H](CCSC)C(=O)N[C@@H](CCC(=O)O)C(=O)N[C@@H](CCCNC(=N)N)C(=O)N[C@H](C(=O)N[C@@H](CCC(=O)O)C(=O)N[C@@H](Cc1c[nH]c2ccccc12)C(=O)N[C@@H](CC(C)C)C(=O)N[C@@H](CCCNC(=N)N)C(=O)N[C@@H](CCCCNC(=O)OCCc1cn(CCOCCOCCNC(=O)COCCOCCNC(=O)CCC(NC(=O)CCCCCCCCCCCCCCC(=O)O)C(=O)O)nn1)C(=O)N[C@@H](CCCNC(=N)N)C(=O)N[C@@H](CC(C)C)C(=O)N[C@@H](CCC(N)=O)C(=O)N[C@@H](CC(=O)O)C(=O)N[C@H](C(=O)N[C@@H](Cc1c[nH]cn1)C(=O)N[C@@H](CC(N)=O)C(=O)N[C@@H](Cc1ccccc1)C(=O)O)C(C)C)C(C)C (stereo partly shown) [L5-GFA16-PTH] (H-SVSEIQLMHNLGRHLNSMERVEWLRK(X6)RLQDVHNF-OH) | significantly prolonged | 
CC[C@H](C)[C@H](NC(=O)[C@H](CCC(=O)O)NC(=O)[C@H](CO)NC(=O)[C@@H](NC(=O)[C@@H](N)CO)C(C)C)C(=O)N[C@@H](CCC(N)=O)C(=O)N[C@@H](CC(C)C)C(=O)N[C@@H](CCSC)C(=O)N[C@@H](Cc1c[nH]cn1)C(=O)N[C@@H](CC(N)=O)C(=O)N[C@@H](CC(C)C)C(=O)NCC(=O)N[C@@H](CCCNC(=N)N)C(=O)N[C@@H](Cc1c[nH]cn1)C(=O)N[C@@H](CC(C)C)C(=O)N[C@@H](CC(N)=O)C(=O)N[C@@H](CO)C(=O)N[C@@H](CCSC)C(=O)N[C@@H](CCC(=O)O)C(=O)N[C@@H](CCCNC(=N)N)C(=O)N[C@H](C(=O)N[C@@H](CCC(=O)O)C(=O)N[C@@H](Cc1c[nH]c2ccccc12)C(=O)N[C@@H](CC(C)C)C(=O)N[C@@H](CCCNC(=N)N)C(=O)N[C@@H](CCCCNC(=O)OCCc1cn(CCNC(=O)COCCOCCNC(=O)COCCOCCNC(=O)CCC(NC(=O)CCCCCCCCCCCCCCC(=O)O)C(=O)O)nn1)C(=O)N[C@@H](CCCNC(=N)N)C(=O)N[C@@H](CC(C)C)C(=O)N[C@@H](CCC(N)=O)C(=O)N[C@@H](CC(=O)O)C(=O)N[C@H](C(=O)N[C@@H](Cc1c[nH]cn1)C(=O)N[C@@H](CC(N)=O)C(=O)N[C@@H](Cc1ccccc1)C(=O)O)C(C)C)C(C)C (stereo partly shown) [L6-GFA16-PTH] (H-SVSEIQLMHNLGRHLNSMERVEWLRK(X1)RLQDVHNF-OH) |  | Tmax ([1]; in vivo, sc, s.c. 8.6 μg/kg, summary of Table 3, read-out: peak times): ~1.6 h
GLP-1: glucose-dependent incretin polypeptide hormone; reference substance of Table 2 |  | biological half-life in vivo [2]: 20 minutes
PTH: parathyroid hormone; PTH-1 is the reference substance of Table 3 (SVSEIQLMHNLGRHLNSMERVEWLRKRLQDVHNF; Amino Acid Sequence of PTH) |  | half-life [3]: about 12 hours
